Drawing on patent US20260109761A1 (IP2IPO INNOVATIONS, published 2026), this text covers Kd and value for one molecule.

The target of one test is T1, huZIP12-ECD-GST (human, UniProt Q504Y0 24-202).
T1 construct: also called hZIP12-ECD-GST; human ZIP12-ECD-GST; not shown: glutathione S-transferase (GST) tag
Briefly: SPR single cycle kinetics, mAb captured on protein A, ZIP12-ECD-GST injected; human ZIP12-ECD-GST; Example 8 cross-species SCK (FIG. 12 average). From the text: Surface plasmon resonance (SPR) is a label free biophysical technique that allows the direct measurement of biomolecular interactions. A single cycle kinetics (SCK) SPR direct binding assay was developed to characterise antibody binding to human, cyno, pig and canine ZIP12 fusion proteins. This assay was used to characterise the binding kinetics of the monoclonal antibody, 51B12 W99H_L1 against each of the four proteins (defined by kon, koff, KD). Single Cycle Kinetics (SCK) involves first capturing the mAb onto the protein A sensor surface and then sequentially injecting a series of concentrations of ZIP12-ECD-GST over the surface starting at the lowest concentration and ending with the highest concentration. The final concentration is followed by a dissociation phase where buffer only is passed across the surface followed by regeneration, where the remaining bound huZIP12-ECD-GST is removed from the surface by injection of a 10 mM Glycine pH 1.5 and 50 mM NaOH solution. The SCK is repeated for each monoclonal antibody providing duplicate data and the kinetics of each interaction is evaluated by the Biacore software.

Test [1] concerns the target T2, LOOP15 35-49 SEQ ID No: 238.
T2 construct: constrained mimic
T2 peptide: CRSRGSSGQPADLLC
Briefly: peptide-array ELISA on mimics of the human ZIP12 ECD (peroxidase conjugate, ABTS, CCD read-out); antibody concentration of this value not given. The method, then: (§1) The binding of antibody to each of the synthesized peptides was tested in a peptide-based ELISA. The peptide arrays were incubated with primary antibody solution (overnight at 4° C.). After washing, the peptide arrays were incubated with a 1/1000 dilution of an appropriate antibody peroxidase conjugate for one hour at 25° C. After washing, the peroxidase substrate 2,2′-azino-di-3-ethylbenzthiazoline sulfonate (ABTS) and […] of 3 percent H2O2 were added. After one hour, the colour development was measured. The colour development was quantified with a charge coupled device—camera and an image processing system.
Background: In an ELISA, binding on a coated surface is turned into a signal by an enzyme label.

Test [2] has as its target T3, LIN15 34-48 SEQ ID No: 223.
T3 peptide: SRSRGSSGQPADLLQ
Described as above. On the procedure: as §1

The target in test [3] is T4, LIN15 35-49 SEQ ID No: 224.
T4 peptide: RSRGSSGQPADLLQV
Described as above. The method, then: as §1

In test [4] the target is T5, LIN15 37-51 SEQ ID No: 226.
T5 peptide: RGSSGQPADLLQVLS
Described as above. The method, then:
as §1

For test [5], the target named is T6, HEL19 31-49 SEQ ID No: 241.
T6 construct: alpha-helical mimic
T6 peptide: CAQDCRSRGSSGQPADLLQ
The test is described as above. On the procedure: as §1

The target in test [6] is T7, BETA22 32-53 SEQ ID No: 249 (not fully specified).
T7 construct: beta-turn mimic
T7 peptide: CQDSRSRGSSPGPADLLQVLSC
Described as above. On the procedure:
as §1

For test [7], the target named is T8, HEL19 33-51 SEQ ID No: 243.
T8 construct: alpha-helical mimic
T8 peptide: CDSRCRGSSGQPADLLQVL
The description is as above. On the procedure: as §1

In test [8] the target is T9, HEL19 37-55 SEQ ID No: 244.
T9 construct: alpha-helical mimic
T9 peptide: CRGSCGQPADLLQVLSAGD
The description is as above. The method, then: as §1

In test [9] the target is T10, LOOP15 36-50 SEQ ID No: 239.
T10 construct: constrained mimic
T10 peptide: CSRGSSGQPADLLQC
Described as above. On the procedure:
as §1

Test [10] addresses T11, LIN15 36-50 SEQ ID No: 225.
T11 peptide: SRGSSGQPADLLQVL
The test is described as above. On the procedure: as §1

In test [11] the target is T12, HEL19 32-50 SEQ ID No: 242.
T12 construct: alpha-helical mimic
T12 peptide: CQDSCSRGSSGQPADLLQV
Described as above. On the procedure: as §1

For test [12], the target named is T13, HEL19 38-56 SEQ ID No: 245.
T13 construct: alpha-helical mimic
T13 peptide: CGSSCQPADLLQVLSAGDH
The description is as above. The method, then:
as §1

For test [13], the target named is T14, BETA22 31-52 SEQ ID No: 248 (not fully specified).
T14 construct: beta-turn mimic
T14 peptide: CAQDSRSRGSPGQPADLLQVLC
The test is described as above. On the procedure:
as §1

Test [14] deals with T15, LOOP15 37-51 SEQ ID No: 240.
T15 construct: constrained mimic
T15 peptide: CRGSSGQPADLLQVC
The test is described as above. On the procedure: as §1

T1 sequence (Q504Y0 24-202): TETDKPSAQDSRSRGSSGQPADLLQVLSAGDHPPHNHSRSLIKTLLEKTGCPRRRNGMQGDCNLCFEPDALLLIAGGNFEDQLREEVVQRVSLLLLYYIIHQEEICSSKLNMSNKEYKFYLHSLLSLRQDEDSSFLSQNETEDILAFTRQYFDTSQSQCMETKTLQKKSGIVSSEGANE

B1: H3_W99H_L1 (antibody, V domains shown)
VH: QVQLVESGGGVVQPGRSLRLSCAASGFTFSDYGMHWVRQAPGKGLEWVAYISSGGTTIYYADTVKGRFTISRDNSKNTLYLQMNSLRAEDTAVYYCARHTNLYAMDYWGQGTTVTVSS
VL: DIVLTQSPDSLAVSLGERATINCRASKSVSTQGYSYMHWYQQKPGQPPKFLIYLASNLESGVPDRFSGSGSGTDFTLTISSLQAEDVAVYYCQHSREVPYTFGGGTKVEIKR
notes: Fc null human IgG1 / human kappa
The Kd is the equilibrium constant for the complex coming apart. A low value points to a tighter complex. With B1, the affinity with huZIP12-ECD-GST, expressed as Kd, was 4.02 nM. For the same molecule, the value was found to be 901 in test [1]; 1650 in [2]; 2460 in test [3]; 2570 in test [4]; 1700 in test [5]; 1350 in [6]. Besides, the value in test [7] turned out to be 2610; in test [8] it was 2760; in test [9], 976; in test [10] it was 2650; in test [11] it was 2140; in test [12], 828. Besides, the values for the value in test [13] and in test [14] were 2440 and 1830, respectively.
